Laboratory results taken from patent US20220332804A1 (CSL INNOVATION, published 2022).
Substitutions are numbered along the chain they refer to.

Columns and labels:
Test in all cases: SPR; KD relative to WT C2;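 further: biacore SPR at 37 °C, anti-C2 mAbs captured on an anti-human IgG chip, alanine or serine C2 surface mutants tested, KD from 1:1 fit compared with wild-type C2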
[1] = target: T1, human C2 V465A (human, UniProt P06681 21-752)
T1 sequence: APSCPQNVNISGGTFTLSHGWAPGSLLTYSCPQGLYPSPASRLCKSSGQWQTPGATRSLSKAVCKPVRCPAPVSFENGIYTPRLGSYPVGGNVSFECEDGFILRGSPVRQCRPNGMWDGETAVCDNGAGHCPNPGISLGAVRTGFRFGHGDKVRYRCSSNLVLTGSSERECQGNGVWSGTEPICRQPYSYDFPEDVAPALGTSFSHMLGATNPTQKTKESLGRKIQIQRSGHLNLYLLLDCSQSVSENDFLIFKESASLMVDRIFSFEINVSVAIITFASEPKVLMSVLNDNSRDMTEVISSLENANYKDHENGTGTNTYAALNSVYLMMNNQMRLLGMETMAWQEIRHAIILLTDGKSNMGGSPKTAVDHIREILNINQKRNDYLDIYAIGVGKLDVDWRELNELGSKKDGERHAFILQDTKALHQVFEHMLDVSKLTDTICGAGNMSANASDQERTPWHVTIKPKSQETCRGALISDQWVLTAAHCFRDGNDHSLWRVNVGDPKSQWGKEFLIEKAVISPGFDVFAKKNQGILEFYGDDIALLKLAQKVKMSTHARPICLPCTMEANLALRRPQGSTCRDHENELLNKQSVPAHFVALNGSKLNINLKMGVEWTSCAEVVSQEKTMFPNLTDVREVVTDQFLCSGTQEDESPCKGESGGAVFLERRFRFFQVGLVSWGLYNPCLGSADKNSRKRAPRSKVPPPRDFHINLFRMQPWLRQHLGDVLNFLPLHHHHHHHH

[2] = target: T2, human C2 E267A (human, UniProt P06681 21-752)
T2 sequence: T1 sequence with E247A, A445V

[3] = target: T3, human C2 D431A (human, UniProt P06681 21-752)
T3 sequence: T1 sequence with D411A, A445V

[4] = target: T4, human C2 F437A (human, UniProt P06681 21-752)
T4 sequence: T1 sequence with F417A, A445V

B1: RF16-214 (antibody, V domains shown)
VH: EVQLLESGGGLVQPGGSLRLSCAASGFTFSWYQMMWVRQAPGKGLEWVSRIYPSGGGTAYADSVKGRFTISRDNSKNTLYLQMNSLRAEDTAVYYCARDAGYGDNWGQGTLVTVSS
VL: QSALTQPPSVSVSPGQTASITCSGDKLGEKYASWYQQKAGQSPVMVIYQDRKRPSGIPERFSGSNSGNTATLTISGTQAMDEADYYCQAWDTRAVVFGGGTKLTVLG
Fold diff [1]: 2 fold | Fold diff [2]: 1 fold | Fold diff [3]: 2 fold | Fold diff [4]: 12 fold
